Molecular target: T1, BMC14 (uncultured bacterium (metagenome))
T1 chain: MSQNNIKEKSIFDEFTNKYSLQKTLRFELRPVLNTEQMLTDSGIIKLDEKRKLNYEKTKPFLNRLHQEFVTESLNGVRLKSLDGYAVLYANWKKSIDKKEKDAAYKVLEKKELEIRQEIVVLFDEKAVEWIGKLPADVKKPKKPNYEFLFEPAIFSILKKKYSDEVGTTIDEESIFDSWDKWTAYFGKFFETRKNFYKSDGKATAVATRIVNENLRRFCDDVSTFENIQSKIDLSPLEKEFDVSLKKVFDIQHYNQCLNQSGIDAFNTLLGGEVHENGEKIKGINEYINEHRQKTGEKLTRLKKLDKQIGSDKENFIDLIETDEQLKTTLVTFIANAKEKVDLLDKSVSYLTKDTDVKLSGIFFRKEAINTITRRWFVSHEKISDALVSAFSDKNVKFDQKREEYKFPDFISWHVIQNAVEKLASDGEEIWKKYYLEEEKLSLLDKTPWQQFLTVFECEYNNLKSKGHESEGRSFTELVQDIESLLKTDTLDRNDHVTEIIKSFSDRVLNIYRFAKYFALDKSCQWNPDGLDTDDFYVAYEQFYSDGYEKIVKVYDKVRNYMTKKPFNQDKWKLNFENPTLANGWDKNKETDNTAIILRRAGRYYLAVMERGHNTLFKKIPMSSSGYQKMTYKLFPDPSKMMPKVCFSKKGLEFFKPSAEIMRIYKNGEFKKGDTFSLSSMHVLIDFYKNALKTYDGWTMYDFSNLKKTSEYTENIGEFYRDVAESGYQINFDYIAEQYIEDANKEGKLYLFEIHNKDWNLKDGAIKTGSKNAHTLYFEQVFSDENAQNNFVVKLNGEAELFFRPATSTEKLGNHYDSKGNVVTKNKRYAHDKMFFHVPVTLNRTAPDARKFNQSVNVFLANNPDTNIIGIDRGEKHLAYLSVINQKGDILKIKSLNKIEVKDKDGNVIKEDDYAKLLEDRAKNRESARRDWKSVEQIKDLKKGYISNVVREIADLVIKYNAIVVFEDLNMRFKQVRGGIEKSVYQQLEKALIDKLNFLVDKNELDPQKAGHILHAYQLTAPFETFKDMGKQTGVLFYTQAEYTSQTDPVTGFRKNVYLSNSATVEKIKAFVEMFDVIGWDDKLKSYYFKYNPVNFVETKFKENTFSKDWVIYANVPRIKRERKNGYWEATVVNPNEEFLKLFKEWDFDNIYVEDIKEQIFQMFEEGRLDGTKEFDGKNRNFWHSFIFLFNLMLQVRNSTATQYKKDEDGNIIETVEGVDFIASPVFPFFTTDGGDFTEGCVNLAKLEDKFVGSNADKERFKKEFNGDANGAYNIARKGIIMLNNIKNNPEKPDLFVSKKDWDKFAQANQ
Assay: cell_activity; PAM not stated; E. coli depletion, 30 C
Protocol: Overnight grown pre-cultures were diluted into fresh 60 ml LB-Kanamycin (25 μg/ml) (Example 4) or LB-Kanamycin (25μg/ml)/Nourseothricin (50 μg/ml) medium (Example 5) to obtain an optical density at 600 nm (OD600) of 0.06. The inoculated medium was incubated at 30° C. on a horizontal shaker at 250 rpm until the culture reached an optical density at OD600 of 0.2. For induced BMC (NN) nuclease expression, 600 μl 20% L-(+)-arabinose (w/v) was added to the culture at a final concentration of 0.2% (v/v). The cultivation was continued until the culture reached an optical density at OD600 of 0.5. Subsequently 50 ml culture was transferred into one 50 ml conical tube and harvested by centrifugation at 4° C. for 5 min and 4000×g. Pelleted cells were resuspended in 50 ml ultrapure water (ice-cold) and centrifuged at 4° C. for 5 min and 4000×g.
This washing procedure was repeated twice. Washed cells were resuspended in 25 ml 10% (w/w) glycerin and re-centrifuged at 4° C. for 5 min and 4000×g. The pelleted cells were resuspended in 5 ml 10% (w/w) glycerin. After the final centrifugation step at 4° C. for 5 min and 4000×g, the cells were resuspended in 125 μl 10% (w/w) glycerin. Aliquots of 25 μl competent cells were stored at −80° C. until use. For the transformation procedure, aliquots of competent cells were thawed on ice and 50-100 ng plasmid DNA (CRISPR/gRNA-Ec) was added. Prepared cells were electroporated at 1800 V, 25 μF and 200 Ω in 1 mm gap size electroporation cuvettes, using the Bio-Rad Gene Pulser Xcell Electroporation System. Subsequently, 975 μL of NEB® 10-beta/Stable Outgrowth Medium was added immediately after the pulse to the transformed cells. Regeneration was done at 30° C. on a horizontal shaker at 250 rpm. Finally, 25-100 μl of the cell suspension was plated onto selective M9-Glucose agar plates supplemented with Kanamycin (25 μg/ml)/Ampicillin (100 μg/ml) (Example 4) or Kanamycin (25 μg/ml)/Ampicillin (100 μg/ml)/Nourseothrin (50 μg/ml) (Example 5). Growth of transformed E. coli cells on selective agar plates was screened for 48 h at 30° C.
As described above, each of the BMC01, BMC02, BMC03, BMC04, BMC05, BMC07, BMC08, BMC09, BMC10, BMC11, BMC12, BMC13, BMC14, or BMC15 nucleases was co-transformed into E. coli with a gRNA targeting the E. coli malQ gene to visualize a) the activity and b) the DNA targeting efficiency of the BMC nucleases.

B1: malQ gRNA (BMC stem-loop + 24 nt spacer) ; malQ protospacer (ssRNA ; dsDNA)
RNA: GAUUUCUACUAUUGUAGAUGUGGCGGUACGUUGAUGCAUCGCG
DNA 1: GTGGCGGTACGTTGATGCATCGCG
DNA 2: CGCGATGCATCAACGTACCGCCAC
**Q.** For B1, which activity is on record?
**A.** Its activity is over 99.9 % colony reduction.

— patent publication US20250277199, “NOVEL CRISPR-CAS NUCLEASES FROM METAGENOMES” (Brain Biotech AG, published 2025)
